From US20250276092A1 (Regeneron, published 2025)
Blank lines part the entries; values can stand above or below the binder they belong to.

Assays:
[1] = target: T1, human CD40 extracellular domain expressed with a C-terminal myc-myc-hexahistidine tag (human); assay: SPR 37C, captured mAb
T1 construct: also called hCD40-MMH; hCD40-mmH
Experimental: (§1) The equilibrium dissociation constants (KD) for anti-CD40 bivalent and bispecific monoclonal antibodies (mAbs) were determined using a real-time surface plasmon resonance (SPR)-based Biacore 4000 biosensor. All binding studies were performed in 10 mM HEPES, 150 mM NaCl, 3 mM EDTA, and 0.05% v/v surfactant Tween-20, pH 7.4 (HBS-ET) running buffer at 25° C. and 37° C. The Biacore CM5 sensor surface was first derivatized by amine coupling with a monoclonal mouse anti-human Fc antibody (REGN2567) to capture anti-CD40 bivalent parental and anti-CD40×CD40 bispecific antibodies. Different concentrations of CD40 reagents, human CD40 extracellular domain expressed with a C-terminal myc-myc-hexahistidine tag (“hCD40-MMH”; REGN3094; SEQ ID NO: 53), monkey CD40 extracellular domain expressed with a C-terminal myc-myc-hexahistidine tag (“mfCD40-MMH”; REGN3097; SEQ ID NO: 54), and mouse CD40 extracellular domain expressed with a C-terminal myc-myc-hexahistidine tag (“mCD40-MMH”; REGN3098; SEQ ID NO: 55), at concentrations ranging from 3.7 nM to 100 nM or 3.3 nM to 90 nM in a series of 3-fold dilutions prepared in HBS-ET running buffer were injected at a flow rate of […] for 4 minutes or […] for 5 minutes. The dissociation of different CD40 reagents bound to anti-CD40 bivalent parental and anti-CD40×CD40 bispecific antibodies was monitored for 10 minutes in HBS-ET running buffer. At the end of each cycle, the anti-CD40 bivalent parental and anti-CD40×CD40 bispecific antibodies capture surface was regenerated using a 12 sec injection of 20 mM H₃PO₄.
(§2) The association rate (ka) and dissociation rate (kd) were determined by fitting the real-time binding sensorgrams to a 1:1 binding model with mass transport limitation using Scrubber 2.0c curve-fitting software. Binding dissociation equilibrium constant (KD) and dissociative half-life (t½) were calculated from the kinetic rates as: KD (M)=kd/kₐ, and t_{1/2} (min)=[ln(2)/(60*kd)].

[2] = target: T2, mouse CD40 extracellular domain expressed with a C-terminal myc-myc-hexahistidine tag (mouse); assay: SPR 37C, captured mAb
T2 construct: also called mCD40-MMH; REGN3098
T2 chain: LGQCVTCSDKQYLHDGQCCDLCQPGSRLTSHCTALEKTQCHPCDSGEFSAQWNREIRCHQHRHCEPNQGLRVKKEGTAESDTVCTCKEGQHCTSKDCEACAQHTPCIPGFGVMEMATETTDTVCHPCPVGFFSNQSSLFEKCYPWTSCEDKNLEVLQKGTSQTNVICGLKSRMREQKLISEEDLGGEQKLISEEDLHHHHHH
Experimental: as §1, §2

[3] = target: T3, human CD40 expressed on cells (human, UniProt P25942 21-277); assay: cell-based or functional assay
T3 sequence (P25942 21-277): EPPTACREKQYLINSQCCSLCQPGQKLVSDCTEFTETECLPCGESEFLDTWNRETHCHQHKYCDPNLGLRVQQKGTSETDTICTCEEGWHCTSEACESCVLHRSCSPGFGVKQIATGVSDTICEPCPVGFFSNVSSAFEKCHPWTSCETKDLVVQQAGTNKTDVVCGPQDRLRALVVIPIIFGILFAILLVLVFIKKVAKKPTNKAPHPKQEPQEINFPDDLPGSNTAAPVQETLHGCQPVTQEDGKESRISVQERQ

[4] = target: T1, human CD40 extracellular domain …; assay: ELISA, blocks 40 nM hCD40-mmH binding to coated 9His-hCD40L
Experimental: In the blocking assay, 9His-hCD40L was passively absorbed at a concentration of 5 μg/mL in PBS on a 96-well microtiter plate overnight at 4° C. […] In a separate 96-well microtiter plate, a fixed amount of 40 nM hCD40-mmH was pre-mixed with one of the following antibodies, at concentrations ranging from 977 pM to 1 μM in PBS+0.5% BSA: (1) anti-CD40×CD40 bispecific antibodies (REGN16431, REGN16432, REGN16634, and REGN16335); (2) parental anti-CD40 mAbs (bivalent antibodies comprising 2 fragment antigen-binding [Fab] arms identical to one of anti-CD40 Fab of anti-CD40×CD40 antibodies); (3) anti-CD40×Irrelevant antibodies (bivalent antibodies that incorporate one Fab arm identical to one of anti-CD40 Fab of anti-CD40×CD40 antibodies and another Fab arm specific to an irrelevant antigen); and (4) human IgG4 with Fc mutation isotype control antibodies (REGN7540 and REGN4513). The fixed concentration of hCD40-mmH was selected to be near the concentration (EC₅₀ value) that generated 50% of the maximal binding to the plate-adhered 9His-hCD40L. After one-hour incubation, the antibody-antigen complexes were transferred to the microtiter plate coated with 9His-hCD40L. After one hour incubation at room temperature, the plates were washed, and plate-bound hCD40-mmH protein was detected with horseradish peroxidase (HRP) conjugated goat anti-c-Myc antibody. The plates were then developed using TMB substrate solution (BD Biosciences) according to the manufacturer's recommended procedure and the absorbance at 450 nm (OD₄₅₀) was measured on a SpectraMax i3× plate reader.
Binding data were analyzed using a sigmoidal (four-parameter logistic) dose-response model with GraphPad Prism™ software. […] The percent blocking of tested antibodies at the highest tested concentration ([…]) was calculated based on the formula shown below: […]

[5] = target: T3, human CD40 expressed on cells; assay: cell-based or functional assay; remark: listed apart in the source
[6] = target: T4, monkey CD40 extracellular domain expressed with a C-terminal myc-myc-hexahistidine tag (monkey); assay: SPR 25C, captured mAb
T4 construct: also called mfCD40-MMH; REGN3097
T4 chain: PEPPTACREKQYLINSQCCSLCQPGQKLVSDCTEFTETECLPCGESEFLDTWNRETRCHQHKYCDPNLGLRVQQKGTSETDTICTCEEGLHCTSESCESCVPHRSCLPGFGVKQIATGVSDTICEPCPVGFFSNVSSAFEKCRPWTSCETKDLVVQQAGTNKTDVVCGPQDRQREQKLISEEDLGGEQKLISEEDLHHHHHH
Experimental: as §1, §2

[7] = target: T1, human CD40 extracellular domain …; assay: SPR 25C, captured mAb
Experimental: as §1, §2

[8] = target: T2, mouse CD40 extracellular domain …; assay: SPR 25C, captured mAb
Experimental: as §1, §2

[9] = target: T3, human CD40 expressed on cells; assay: cell-based or functional assay; remark: listed apart in the source
[10] = target: T1, human CD40 extracellular domain …; assay: BLI Octet, hCD40-MMH captured on anti-Penta-His tips
Experimental: Binding competition between different anti-CD40 monoclonal antibodies (mAbs) was determined using a real time, label-free bio-layer interferometry (BLI) assay on the Octet HTX biosensor platform (Pall ForteBio Corp.). In addition to parental antibodies 21519P2, 21520P2, and 30027P2, a comparator anti-CD40 antibody (REGN11209) was also tested; this comparator has the heavy chain and light chain sequences of iscalimab (see, U.S. Pat. No. 8,828,396). The entire experiment was performed at 25° C. in 10 mM HEPES buffer containing 150 mM NaCl, 3 mM EDTA, 1 mg/mL BSA, 0.02% NaN₃, and 0.05% v/v Surfactant Tween-20 at pH 7.4 (HBS-EP) with the plate shaking at a speed of 1000 rpm.
To assess the ability of one antibody to compete with another antibody for binding to CD40, around 0.47 nm-0.54 nm of recombinant human CD40 extracellular domain expressed with a C-terminal myc-myc-hexahistidine (hCD40-MMH; SEQ ID NO: 53) was first captured onto anti-Penta-His antibody coated Octet biosensor tips (Fortebio Inc, #18-5122) by submerging the biosensor tips in wells containing 10 μg/mL solution of the hCD40-MMH for 90 seconds. […] The real-time binding response was monitored and the binding response at the end of every step was recorded. […]
Target sequence in this assay (chain, as listed by the source limits assumed): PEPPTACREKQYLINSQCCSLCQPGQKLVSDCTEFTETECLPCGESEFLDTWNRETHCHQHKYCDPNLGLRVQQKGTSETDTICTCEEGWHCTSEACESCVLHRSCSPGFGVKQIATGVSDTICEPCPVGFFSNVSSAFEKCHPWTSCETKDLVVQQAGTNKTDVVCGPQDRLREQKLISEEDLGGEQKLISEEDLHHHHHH

[11] = target: T3, human CD40 expressed on cells; assay: cell-based or functional assay; remark: listed apart in the source
[12] = target: T3, human CD40 expressed on cells; assay: cell-based or functional assay; remark: listed apart in the source
[13] = target: T3, human CD40 expressed on cells; assay: cell-based or functional assay; remark: listed apart in the source
[14] = target: T3, human CD40 expressed on cells; assay: cell-based or functional assay; remark: listed apart in the source
[15] = target: T3, human CD40 expressed on cells; assay: cell-based or functional assay; remark: listed apart in the source
[16] = target: T3, human CD40 expressed on cells; assay: cell-based or functional assay; remark: listed apart in the source

100 nM Ag Bound (RU) [1]: 105 RU
100 nM Ag Bound (RU) [2]: 1.6 RU
IC50, NFkB-luc THP-1, 10 nM hCD40L [3]: 0.276 nM
Max % activation, NFkB-luc THP-1, no ligand [3]: 5%
Max % inhibition, NFkB-luc THP-1, 10 nM hCD40L [3]: 99%
% Blocking at highest mAb concentration [4]: 94%
IC50, NFkB-luc Ramos, 500 pM hCD40L [5]: 3.09e-11 M
Max % activation, NFkB-luc Ramos, no ligand [5]: 13%
Max % inhibition, NFkB-luc Ramos, 500 pM hCD40L [5]: 88%
100 nM Ag Bound (RU) [6]: 10.3 RU
100 nM Ag Bound (RU) [7]: 99 RU
100 nM Ag Bound (RU) [8]: 0.4 RU
IC50, NFkB-luc Raji, 900 pM hCD40L [9]: 6.05e-11 M
Max % activation, NFkB-luc Raji, no ligand [9]: 15%
Max % inhibition, NFkB-luc Raji, 900 pM hCD40L [9]: 92%
B1: 21519P2 (antibody, human IgG4 S228P, kappa, V domains shown)
VH: QLQLQESGPGLVRPSETLSLTCSVSGASMNTNNYYWGWIRQPPGKGLEWIGSGYYNGNTYYNPSLKSRVTISVDTSKNQFSLKLNSVTAADTAVYYCARQTPPRIIGSPNIWGQGTMVTVSS
VL: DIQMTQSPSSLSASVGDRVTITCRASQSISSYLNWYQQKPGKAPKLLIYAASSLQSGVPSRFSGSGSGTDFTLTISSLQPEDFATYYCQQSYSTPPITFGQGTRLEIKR
notes: Parental bivalent anti-CD40 mAb; also called H4sH21519P2

binding result [10]: binds
% max blockade relative to no mAb, TNFa, B cells, donor 1 [11]: 53.9%
% max blockade relative to no mAb, TNFa, B cells, donor 2 [11]: 71.4%
% max blockade relative to no mAb, TNFa, B cells, donor 3 [11]: 73.9%
% max blockade relative to no mAb, IL-10, assay #2, donor 1 [12]: 88.1%
% max blockade relative to no mAb, IL-10, assay #2, donor 2 [12]: 90.5%
% max blockade relative to no mAb, IL-10, B cells, donor 1 [13]: 84.1%
% max blockade relative to no mAb, IL-10, B cells, donor 2 [13]: 91.7%
% max blockade relative to no mAb, IL-10, B cells, donor 3 [13]: 91.4%
% max blockade relative to no mAb, IL-6, B cells, donor 1 [14]: 84.2%
% max blockade relative to no mAb, IL-6, B cells, donor 2 [14]: 91.3%
% max blockade relative to no mAb, IL-6, B cells, donor 3 [14]: 91.3%
% max blockade relative to no mAb, TNFa, assay #2, donor 1 [15]: 62%
% max blockade relative to no mAb, TNFa, assay #2, donor 2 [15]: 50.6%
% max blockade relative to no mAb, IL-6, assay #2, donor 1 [16]: 88.6%
% max blockade relative to no mAb, IL-6, assay #2, donor 2 [16]: 88.3%
B2: REGN11209 (comparator anti-CD40 antibody with the heavy chain and light chain sequences of iscalimab) (antibody, human IgG1, kappa, N297A, V domains shown)
VH: QVQLVESGGGVVQPGRSLRLSCAASGFTFSSYGMHWVRQAPGKGLEWVAVISYEESNRYHADSVKGRFTISRDNSKITLYLQMNSLRTEDTAVYYCARDGGIAAPGPDYWGQGTLVTVSS
VL: DIVMTQSPLSLTVTPGEPASISCRSSQSLLYSNGYNYLDWYLQKPGQSPQVLISLGSNRASGVPDRFSGSGSGTDFTLKISRVEAEDVGVYYCMQARQTPFTFGPGTKVDIRR
notes: also called COMP11209; CFZ533
